Test results from the supplement of paper PMC9170038.

Tests used:
MS2 coat protein = test: apparent KD of MS2 coat protein; higher = weaker reporter binding; settings: Eterna round: R107
Method: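 RNA-MaP round R107: designed RNA switches with theophylline, tryptophan, arginine or FMN aptamers are transcribed on-chip within common flanks. They are titrated with SNAP-549-labelled MS2 coat protein in RNA-MaP buffer (100 mM Tris pH 7.5, 80 mM KCl, 4 mM MgCl2), without ligand or with the indicated ligand. Median apparent KD per design.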

[1] = tested on: K4 kissing-loop RNA reporter; test: apparent KD of K4 kissing-loop reporter; higher = weaker reporter binding; settings: Eterna round: R107;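 further: bound reporter read as fluorescence of individual clusters on recovered sequencing chips by microscopy, with normalized cluster intensities fitted with a binding model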
Method: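 RNA-MaP round R107: designed RNA switches with theophylline, tryptophan, arginine or FMN aptamers are transcribed on-chip within common flanks. They are titrated with a labelled K4 kissing-loop RNA reporter in RNA-MaP buffer (100 mM Tris pH 7.5, 80 mM KCl, 4 mM MgCl2), without ligand or with the indicated ligand. Median apparent KD per design.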

[2] = input ligand: theophylline 20 uM
[3] = input ligand: theophylline 2 mM
[4] = input ligand: tryptophan 2.4 mM

Sequence	apparent KD of MS2 coat protein (MS2 coat protein; input ligand: arginine 13.2 mM) [nM]	apparent KD of MS2 coat protein (MS2 coat protein; input ligand: none) [nM]	apparent KD of MS2 coat protein (MS2 coat protein; [2]) [nM]	apparent KD of MS2 coat protein (MS2 coat protein; [3]) [nM]	apparent KD of MS2 coat protein (MS2 coat protein; [4]) [nM]	apparent KD of K4 kissing-loop reporter ([1]; input ligand: FMN 200 uM) [nM]	apparent KD of K4 kissing-loop reporter ([1]; input ligand: arginine 13.2 mM) [nM]	apparent KD of K4 kissing-loop reporter ([1]; input ligand: none) [nM]	apparent KD of K4 kissing-loop reporter [1, 2] [nM]	apparent KD of K4 kissing-loop reporter [1, 4] [nM]
AAAAUCCUACCUGAGGAUCACCCAGGUGAAGGAGCGCCCGAAAGGGCAGGUAGGUCGCACCUGAGGAUCACCCUGGUACCUAAAA [ArgAX 27 #DoubleMs2 #OpenEnded #AlternativeMS2]	86.2	61	85.8	104	63.1					
AAACAGUCGGACAUGAGGAUCACCCAUGUGCGAGGACCGGUACGGCCGCCACUCGACAAGGGCGGUCCCGAAGCAAACAUACGCG [Enedquceor]	12.2	16.5	33.7	21.3	25.4					
AAACAUUGCUCAGAUACCAGACAUGAGGAUCACCCAUGUACCGAGGUACCCGAAAGGAAUGUCCCUUGGCAGCUGAGCAAUGAAA [MAT - Exclusion Theophlline B - Mod of Eli - D22]	14.2		15.3		11.4					
AAACGUUGCUCAGAUACCAGACAUGAGGAUCACCCAUGUACCAAGGUACCCGAAAGGAAUGUCCCUUGGCAGCUGAGCAACGAAA [MAT - Exclusion Theophlline B - Mod of Eli - D21]	11.1		11.9		10.4					
AAAUAAAUACAUGAGGAUCACCCAUGUGAAGGAGCGCGCGUUAGCGCAGGUAGGUCGCACAUGAACUCCAAAGUGCGAAAGCACA [MAT - Exclusion Arginine A - Mod of Eli - D9]	14.5	20	23.1	34.1	20.9					
AAAUGUACGUCGGCCGCCACUGCGCUGAAGACAGUCACAUGAGGAUCACCCAUGUACGACAAGGGUAGGACCGGGAUGUGAGGGU [Rate]	45.1		130	217						
AACAUACAAUAAAAGGUGGAAAUAAGGCGGCGAGGACCGGUACGGCCGCCACUCGCGUACAUGAGGAUCACCCAUGUCUGAAACU [Same State - Tryptophan A (Freestyle 2)]	12.5	22.8	24.2	28.8	19.1					
AACAUCUGGCGUGAUACCAGCCACAUGAGGAUCACCCAUGUCAACACUCGCAAUUGCGACGGCCCUUGGCAGCACGCAUCCUCAG [Sorioncege]	49		34.8		60.9					
AACAUGAGGAUCACCCAUGUGUCCUCGAAACGAGGACCGGUACGGCCGCCACUCGAAAAGGUGUUGACGAAAAGUCAGCACCAAA [Mat - Exclusion - Trytophan A - D16]	129	264	451	451	820					
AACGUAUACAGAAGGAGCGUGAAAUAAGUAAAUUAAUAAUAAACAUGAGGAUCACCCAUGUCACAGGUAGGUCGCUGUAUUCGUA [JR_ExcArginiB_Sub017]	15.5	21.5	23.6	21.5	18.4					
AACGUAUACAGAAGGAGCGUGAUUUAUAAUUCUUUAAAAUAUACAUGAGGAUCACCCAUGUCACAGGUAGGUCGCUGUAUUCGUA [JR_ExcArginiB_Sub024]	29.8	35.7	43.1	35.2	33.2					
AACUUCGCAUAGGAAAACUAUGUGAAGAAUCGAGGACCGGUACGGCCGCCACUCGUCCUCAACAUGAGGAUCACCCAUGUAAUAA [Mat - Exclusion - Trytophan A - D4]	22.1		25.4	22.6						
AAGACAUGAGGAUCACCCAUGUGUCAUGAAGGAGCGUCGGAAAUGACAGGUAGGUCGCAUGACCGUUGGCGCCGGAAACGGCGCA [SSAA #15]	23.8	30.5	35.3	33.3	23.5					
AAGACGGUCGGAAGGAGCGGUACAUGAGGAUCACCCAUGUACUUCUGGGCAUCCGUAGUGUGCCAGGUAGGUCGCCGAUUGCGGG [XArg-B12]	32.7	22.4	36.3	24.9	22.8					
AAGGAAAAGGCGGCCGCCACUGGAAAGGCGAAAGCCAAGAAAACAUGAGGAUCACCCAUGUCAUGUAGGACCGGGCCAAAAGGAA	10	21.9	26.3	14.7	23.7					
AAUAAACAUGAGGAUCACCCAUGUAUGGAAGGAGCGGUAAAUAAACCAGGUAGGUCGCCAGUGUGAGGGUCAUCUAUGUAAUAAA [Exclusion - Arginine A (Freestyle 1)]	40.8	32	53.6	74.9	33.4					
AAUAACAUGAGGAUCACCCAUGUAAAAGAUACCAGGGUGAUGAUCCUCCCUUGGCAGCUUACAGCUGAUCAAUAAGAUCGGCUGA [TheoAS #Tail #MS2BeforeAptamer #BothOrNeither]	87.5		256		184					
AAUAAGUACUUUGAUACCAGCCUGCCAUCAUGCUAAUUUACAUGAGGAUCACCCAUGUUAGGCCCUUGGCAGCAAAGUGCAAUAA [XTheo B #1]	12.8		15.8		12.4					
AAUACCGGAUCGGCCGCCACUGGUUGGCCCUGUGUACAUGAGGAUCACCCAUGUCCAUCCCAAGCCAGGACCGGGAUCUUUGUGU [Bedice]	17.1		24.9	18.5						
AAUCAUAGGGCGGCCGCCACUAAACAUGAGGAUCACCCAUGUCUCGAGGGCUUGCGUUUGGGAAGUAGGACCGGGCCAAUAGUAA [Tryp B Ex Mod2]	18	19.1	23	17	16.1					
AAUGAACAUGAGGAUCACCCAUGUCGUGAUACCAGCCGUAAGAGUGGCCCUUGGCAGCGCCAUGAGGACAACAACAUACAUGAGG [Same State Theophylline A]	22.9		29.7		24.8					
AAUGAGUGGUGGUCAAGUGAUCCUCAUGAACGAGGACCGGUACGGCCGCCACUCGAUAACAUGAGGAUCACCCAUGUAAUAAUAA [|T'-M'-Trp-Ms2|_Design8]	15.6		18.9	22.4						
AAUUAAAACUGAAGGAGCGUCGUGCGUGGGUGCGUCCCACAUGAGGAUCACCCAUGUGGUUGACAGGUAGGUCGCAGAAUAAUUU [Exclusion - Arginine B]	66.9	49.7	95.5	155	36.6					
AAUUAAACAUCGGCCGCCACUUACUCAUGAGGUAACAACAUGAGGAUCACCCAUGUUUGAGGAUCAAGGACCGGGAUGUAAUAAU [AstrosSSTryB#2]	23.2		38.5	36.8						
AAUUAUCACGGAAGGAGCGUCAUGAAAUUGAUACAUGAGGAUCACCCAUGUGAGUGUUAGAGACAGGUAGGUCGCCGAUUAUUGA [JR_AAArginiB_Sub028]	24.9	30.7	43.1	49.3	31					
AAUUCCUCACAUGAGGAUCACCCAUGUGAAGGAGCGCCGAAUAAGGCAGGUAGGUCGCACAUGGAAACCUCUACGAAAGUAGUAA [XArg-A 3 NuV1V2]	16.5	15.8	20.8	18.2	15.6					
UUUUUUUACUGAAGGAGCGGCAAUUGAUACGUAGAUAUAGUGAUGUUAUAUAAGAUAGAGAGCCAGGUAGGUCGCAGAUUUUUUU [ExArgB.W]						153	171	163	167	147
